Data: patent US20150344570A1 (published 2015)

B1: GpH7-A5/GpH7-B3 variant E269_06M/GpL16-k0 (antibody, human IgG1, kappa)
heavy 1: not shown
heavy 2: not shown
light: DIVMTQSPLSLPVTPGEPASISCQASESLVHSNRNTYLHWYLQKPGQSPQLLIYKVSNRFSGVPDRFSGSGSGTDFTLKISRVEAEDVGVYYCSQNTHVPPTFGQGTKVEIERTVAAPSVFIFPPSDEQLKSGTASVVCLLNNFYPREAKVQWKVDNALQSGNSQESVTEQDSKDSTYSLSSTLTLSKADYEKHKVYACEVTHQGLSSPVTKSFNRGEC
notes: heterodimerized IgG1, mutation in one H chain; also called He Ab
B2: GpH7-A5/GpH7-B3 variant E269_08L/GpL16-k0 (antibody, human IgG1, kappa)
heavy 1: not shown
heavy 2: not shown
light: DIVMTQSPLSLPVTPGEPASISCQASESLVHSNRNTYLHWYLQKPGQSPQLLIYKVSNRFSGVPDRFSGSGSGTDFTLKISRVEAEDVGVYYCSQNTHVPPTFGQGTKVEIERTVAAPSVFIFPPSDEQLKSGTASVVCLLNNFYPREAKVQWKVDNALQSGNSQESVTEQDSKDSTYSLSSTLTLSKADYEKHKVYACEVTHQGLSSPVTKSFNRGEC
notes: as for B1
B3: GpH7-A5/GpH7-B3 variant E269_15Y/GpL16-k0 (antibody, human IgG1, kappa)
heavy 1: not shown
heavy 2: not shown
light: DIVMTQSPLSLPVTPGEPASISCQASESLVHSNRNTYLHWYLQKPGQSPQLLIYKVSNRFSGVPDRFSGSGSGTDFTLKISRVEAEDVGVYYCSQNTHVPPTFGQGTKVEIERTVAAPSVFIFPPSDEQLKSGTASVVCLLNNFYPREAKVQWKVDNALQSGNSQESVTEQDSKDSTYSLSSTLTLSKADYEKHKVYACEVTHQGLSSPVTKSFNRGEC
notes: as for B1
B4: GpH7-A5/GpH7-B3 variant E333_01G/GpL16-k0 (antibody, human IgG1, kappa)
heavy 1: not shown
heavy 2: not shown
light: DIVMTQSPLSLPVTPGEPASISCQASESLVHSNRNTYLHWYLQKPGQSPQLLIYKVSNRFSGVPDRFSGSGSGTDFTLKISRVEAEDVGVYYCSQNTHVPPTFGQGTKVEIERTVAAPSVFIFPPSDEQLKSGTASVVCLLNNFYPREAKVQWKVDNALQSGNSQESVTEQDSKDSTYSLSSTLTLSKADYEKHKVYACEVTHQGLSSPVTKSFNRGEC
notes: as for B1
B5: GpH7-A5/GpH7-B3 variant E333_13S/GpL16-k0 (antibody, human IgG1, kappa)
heavy 1: not shown
heavy 2: not shown
light: DIVMTQSPLSLPVTPGEPASISCQASESLVHSNRNTYLHWYLQKPGQSPQLLIYKVSNRFSGVPDRFSGSGSGTDFTLKISRVEAEDVGVYYCSQNTHVPPTFGQGTKVEIERTVAAPSVFIFPPSDEQLKSGTASVVCLLNNFYPREAKVQWKVDNALQSGNSQESVTEQDSKDSTYSLSSTLTLSKADYEKHKVYACEVTHQGLSSPVTKSFNRGEC
notes: as for B1
B6: GpH7-A5/GpH7-B3 variant G236_20W/GpL16-k0 (antibody, human IgG1, kappa)
heavy 1: not shown
heavy 2: not shown
light: DIVMTQSPLSLPVTPGEPASISCQASESLVHSNRNTYLHWYLQKPGQSPQLLIYKVSNRFSGVPDRFSGSGSGTDFTLKISRVEAEDVGVYYCSQNTHVPPTFGQGTKVEIERTVAAPSVFIFPPSDEQLKSGTASVVCLLNNFYPREAKVQWKVDNALQSGNSQESVTEQDSKDSTYSLSSTLTLSKADYEKHKVYACEVTHQGLSSPVTKSFNRGEC
notes: as for B1
B7: GpH7-A5/GpH7-B3 variant I336_01G/GpL16-k0 (antibody, human IgG1, kappa)
heavy 1: not shown
heavy 2: not shown
light: DIVMTQSPLSLPVTPGEPASISCQASESLVHSNRNTYLHWYLQKPGQSPQLLIYKVSNRFSGVPDRFSGSGSGTDFTLKISRVEAEDVGVYYCSQNTHVPPTFGQGTKVEIERTVAAPSVFIFPPSDEQLKSGTASVVCLLNNFYPREAKVQWKVDNALQSGNSQESVTEQDSKDSTYSLSSTLTLSKADYEKHKVYACEVTHQGLSSPVTKSFNRGEC
notes: as for B1
B8: GpH7-A5/GpH7-B3 variant I336_02A/GpL16-k0 (antibody, human IgG1, kappa)
heavy 1: not shown
heavy 2: not shown
light: DIVMTQSPLSLPVTPGEPASISCQASESLVHSNRNTYLHWYLQKPGQSPQLLIYKVSNRFSGVPDRFSGSGSGTDFTLKISRVEAEDVGVYYCSQNTHVPPTFGQGTKVEIERTVAAPSVFIFPPSDEQLKSGTASVVCLLNNFYPREAKVQWKVDNALQSGNSQESVTEQDSKDSTYSLSSTLTLSKADYEKHKVYACEVTHQGLSSPVTKSFNRGEC
notes: as for B1
B9: GpH7-A5/GpH7-B3 variant I336_03V/GpL16-k0 (antibody, human IgG1, kappa)
heavy 1: not shown
heavy 2: not shown
light: DIVMTQSPLSLPVTPGEPASISCQASESLVHSNRNTYLHWYLQKPGQSPQLLIYKVSNRFSGVPDRFSGSGSGTDFTLKISRVEAEDVGVYYCSQNTHVPPTFGQGTKVEIERTVAAPSVFIFPPSDEQLKSGTASVVCLLNNFYPREAKVQWKVDNALQSGNSQESVTEQDSKDSTYSLSSTLTLSKADYEKHKVYACEVTHQGLSSPVTKSFNRGEC
notes: as for B1
B10: GpH7-A5/GpH7-B3 variant I336_04F/GpL16-k0 (antibody, human IgG1, kappa)
heavy 1: not shown
heavy 2: not shown
light: DIVMTQSPLSLPVTPGEPASISCQASESLVHSNRNTYLHWYLQKPGQSPQLLIYKVSNRFSGVPDRFSGSGSGTDFTLKISRVEAEDVGVYYCSQNTHVPPTFGQGTKVEIERTVAAPSVFIFPPSDEQLKSGTASVVCLLNNFYPREAKVQWKVDNALQSGNSQESVTEQDSKDSTYSLSSTLTLSKADYEKHKVYACEVTHQGLSSPVTKSFNRGEC
notes: as for B1
B11: GpH7-A5/GpH7-B3 variant I336_06M/GpL16-k0 (antibody, human IgG1, kappa)
heavy 1: not shown
heavy 2: not shown
light: DIVMTQSPLSLPVTPGEPASISCQASESLVHSNRNTYLHWYLQKPGQSPQLLIYKVSNRFSGVPDRFSGSGSGTDFTLKISRVEAEDVGVYYCSQNTHVPPTFGQGTKVEIERTVAAPSVFIFPPSDEQLKSGTASVVCLLNNFYPREAKVQWKVDNALQSGNSQESVTEQDSKDSTYSLSSTLTLSKADYEKHKVYACEVTHQGLSSPVTKSFNRGEC
notes: as for B1

What follows are binders tested against T1, FcγRIa (human, UniProt P12314 16-292) (assay: SPR (Biacore), captured antibody, FcγRIa analyte; relative to HeCon Ab GpH7-A5/GpH7-B3/GpL16-k0 = 100).
T1 construct: extracellular domain; soluble extracellular domain with C-terminal His tag, expressed in FreeStyle293 cells; also called FcgRI; FcgRIa
T1 sequence (P12314 16-292): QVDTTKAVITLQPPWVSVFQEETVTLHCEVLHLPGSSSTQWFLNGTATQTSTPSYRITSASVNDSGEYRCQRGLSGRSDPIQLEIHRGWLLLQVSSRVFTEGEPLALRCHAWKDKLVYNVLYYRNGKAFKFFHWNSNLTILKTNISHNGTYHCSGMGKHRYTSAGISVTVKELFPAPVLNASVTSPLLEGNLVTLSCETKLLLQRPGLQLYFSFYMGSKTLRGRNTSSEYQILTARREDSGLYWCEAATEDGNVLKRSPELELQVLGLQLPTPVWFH
B1 was tested, and the He/Con_1a was 104 % of control. For B2, the He/Con_1a was 104 % of control. For B3, the He/Con_1a was 106 % of control. In the case of B4, the He/Con_1a is reported as 103 % of control. For B5, the He/Con_1a was 103 % of control. With B6 the He/Con_1a was 105 % of control. With B7 the He/Con_1a was 109 % of control. B8 was tested, and the He/Con_1a was 106 % of control. For B9, the He/Con_1a was 105 % of control. With B10 the He/Con_1a was 106 % of control. With B11 the He/Con_1a was 108 % of control.
